Experimental data from patent US20180049457A1, “ENZYMATIC SYNTHESIS OF SOLUBLE GLUCAN FIBER” (E I DU PONT DE NEMOURS AND COMPANY, priority 2014, published 2018).

Assay: GTF activity of strains (PAHBAH assay)
Assay type: biochemical
Settings: enzyme expressed in B. subtilis host
Method: GTF activity of the strains was analyzed by PAHBAH assay in three separate experiments. Due to minor variations between the expeirments, Table 2 lists the activity of the truncated enzymes in the B. subtilis host along with the experiment in which the activity was measured. Most of the T1, T2, and T6 truncations decreased the activity of the enzymes, whereas the T4 and T5 C-terminal truncations retained similar activity relative to the respective N terminal-only truncations (NT). […] To identify specific amino acid residues within the catalytic domain that may be involved in producing the soluble α-glucan fiber, we analyzed the crystal structures (PDB Identifiers: 3AIB, 3AIC, and 3HZ3) of the catalytic domains of three glucosyltransferases to identify residues within 8 Angstroms of the bound ligand. 57 residues met that criterion. A motif was generated based on the corresponding 57 amino acids in GTF0459 and each of the identified homologs. The motif was then used to generate a consensus sequence to capture the variability in the catalytic domains of GTF0459 and the identified homologs. The consensus sequence is provided as SEQ ID NO: 153.

B1: GTF4336NT: N terminal-only truncated GTF4336 from Streptococcus salivarius SK126, SEQ ID NO: 104, strain SG1291 (protein)
chain: INGKQYYVNSDGSVRKNFVFEQDGKSYYFDAETGALATKSQDEFSTEPIKATVDFSSGNQLYKNDDKSLDQLDTFITADAWYRPKSILKDGKTWTASTEADKRPLLMVWWPDKSTQVNYLNYMQNQGLGAGSFSTNSSQESLDQAAKAVQTKIEERIAREGNTNWLRTSIDQFIKTQPGWNSSTENSSYDHLQGGQLLFNNSKGDTGNRTSHANSDYRLLNRTPTNQTGTRKYFKDNSIGGLEFLLANDIDNSNPAVQAEQLNWLHFMMNIGSIMANDPTANFDGLRVDALDNVDADLLQIASDYFKAAYGVDKSEANAIKHLSYLEAWSANDPYYNKDTKGAQLPIDNALRNALTNLLMRDKNTRMQLGDMTAFINSSLNPRGANDKNGERMANYIFTRAHDTEAQTIIQRIIRDRINPNLFGYNFTRDEIKKAFEIYNEDIDKAHKTYASYNLPSVYALMLTNKDSVTRVYYGDLYREDGHYMAKKTPYFDAIDTLLRARIKYVAGGQDMEVKKVGNDGLLTSVRYGKGANNRTDLGTSETRTQGMGVIMTNNYDFRLGSNETVTMNMGRAHRNQLYRPLLLTTKDGIATYFNDSDVPKNLLKRTDWNGNLTFNANDVFGVENVQVSGYLGVWVPVGAKANQDARTQPSNRANSDGQVYKSSAALDSQVMYEAFSNFQAFADDQPELYMNRVLAKNTDLLKAWGVTSVGLPPQYVSSKDGTFLDSTIDNGYAFDDRYDMALSQNNKYGSLEDLLNVLRALHKDGIQAIADWVPDQIYNLPGKEVVNATRVNGYGYHQQGYQIVDQAYVANTRTDGTDYQGKYGGAFLDELKAKYPSIFNRVQISNGKQLPTNEKITKWSAKYFNGTNILGRGINYVLRDDKTNQYFNTSANSQLLPTPLRDTGAITSTQVFQRRGQDVYFLRDNQAVKNEFVQDGNGNWYYFGADGKMTKGAQTINKKDYYFFDNGIQLRNALRRANNGYTYYYGLDGAMVKNAFVDFDDKRKQVRAFTTQGTMVVGNLHWSGHHFYFDRETGIQAKDRIVRTDDGKLHYYVAGTGDMGRNVFATDSSTGKRYYFDADGNTVTGSRVIDGKTYYFNQDGSVGTAYSNRADSIIFENGKARYITPAGEIGRSIFVYNPATKAWNYFDKEGNRVTGRQYIDGHLYYFKEDGSQAKGEIIEENGIKYYYEPESGILASGRYLQVGDDQWMYFKQDGSLAIGQVRADHGYLKYFDKNGIQVKGKTIVEDGKTYYYDAHSGALVTSSFAEIAPNQWSYFNTDGQALKGKWTINGKEYYFDQNGIQYKGKAVKVGSRYKYYDENDGQPVTNRFAQIEPNVWAYFGADGYAVTGEQVINGQHLYFDQSGRQVKGAYVTVNGQRRYYDANTGEYVPGR
modifications: Streptococcus salivarius SK126
GTF activity of strains: Acitivity (Experiment Number 1): 34.5 U/mL
GTF activity of strains: Acitivity (Experiment Number 2): 48.6 U/mL
